Laboratory results taken from patent US20030039658.

Experiments:
[1] = biological target: FLAG-tagged DSIF p160 (FT-DSIFp160) (UniProt O00267)
[2] = biological target: RPB1, the largest (220 kDa) subunit of Pol II, within purified Pol II (UniProt P24928)
[3] = biological target: rGST-CTD, recombinant glutathione-S-transferase fusion protein containing a portion of the CTD of RPB1 of Pol II (UniProt P24928)

Sequence of Cyclin T1 (chain, as listed by the source): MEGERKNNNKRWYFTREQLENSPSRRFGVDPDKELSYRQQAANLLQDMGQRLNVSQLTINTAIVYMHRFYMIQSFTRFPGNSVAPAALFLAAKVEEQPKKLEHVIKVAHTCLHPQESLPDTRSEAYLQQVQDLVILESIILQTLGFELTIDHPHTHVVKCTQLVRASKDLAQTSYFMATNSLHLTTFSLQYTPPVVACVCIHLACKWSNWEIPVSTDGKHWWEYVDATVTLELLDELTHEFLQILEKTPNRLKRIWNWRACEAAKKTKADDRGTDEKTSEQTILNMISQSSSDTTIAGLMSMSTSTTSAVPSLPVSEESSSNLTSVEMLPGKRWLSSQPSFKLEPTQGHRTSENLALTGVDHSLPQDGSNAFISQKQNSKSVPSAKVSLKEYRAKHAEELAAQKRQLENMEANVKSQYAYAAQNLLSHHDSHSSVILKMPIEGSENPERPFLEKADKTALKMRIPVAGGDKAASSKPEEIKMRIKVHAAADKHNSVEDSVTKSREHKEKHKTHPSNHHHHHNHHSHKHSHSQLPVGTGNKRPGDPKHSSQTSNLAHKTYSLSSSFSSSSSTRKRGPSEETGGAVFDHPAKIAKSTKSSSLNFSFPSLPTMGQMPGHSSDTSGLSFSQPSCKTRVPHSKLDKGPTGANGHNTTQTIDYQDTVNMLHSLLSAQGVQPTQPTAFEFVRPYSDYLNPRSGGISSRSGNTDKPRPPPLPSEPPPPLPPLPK

Row | Substance | in vitro kinase assay (autophosphorylation of the preparation) (Cyclin T1) | in vitro kinase assay (phosphorylation of the substrate) [1] | in vitro kinase assay (phosphorylation of the substrate) [2] | in vitro kinase assay (phosphorylation of the substrate) [3]
1 | FLAG-tagged CDK9 (FT-CDK9) | The FT-CDK9 immunopurification autophosphorylates specific components circa 45 kD and 87 kD, consistent with the molecular weights expected for Cyclin T1 and a FT-CDK9 | the immunopurified f:CDK9 actively phosphorylated a circa 160 kDa polypeptide, most likely f:DSIF p160, within an immunopurified f:DSIF p160 preparation | The f:CDK9 immunopurified preparation was able to phosphorylate both rGST-CTD and RPB1 within Pol II | The f:CDK9 immunopurified preparation was able to phosphorylate both rGST-CTD and RPB1 within Pol II
2 | FLAG-tagged CDK9M (FT-CDK9M), CDK9 with the D167N mutation | The FT-CDK9M immunopurification was significantly weaker in its ability to autophosphorylate the 87 kD band | – | significantly impaired in its ability to phosphorylate either rGST-CTD or RPB1 within Pol II | significantly impaired in its ability to phosphorylate either rGST-CTD or RPB1 within Pol II
